Results taken from PMC10229872.

Target: Programmed cell death-1 (human (endogenous in PBMCs)) (UniProt Q15116)
Sequence of UniProt Q15116 (Q15116 25-288): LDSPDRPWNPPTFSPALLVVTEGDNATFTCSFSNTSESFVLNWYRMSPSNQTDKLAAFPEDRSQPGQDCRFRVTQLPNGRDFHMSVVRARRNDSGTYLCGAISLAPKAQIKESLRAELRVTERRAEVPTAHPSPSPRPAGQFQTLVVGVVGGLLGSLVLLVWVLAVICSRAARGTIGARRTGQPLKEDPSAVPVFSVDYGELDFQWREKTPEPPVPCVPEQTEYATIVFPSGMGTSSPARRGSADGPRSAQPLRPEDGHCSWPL

## soluble monomeric human PD-L1 (from UniProt Q9NZQ7 19-229) (domain or fragment)
  reduction of intracellular IFN-gamma in PBMCs stimulated with anti-CD3/CD28 antibodies (FACS): 55.3%
  reduction of intracellular IL-2 in PBMCs stimulated with anti-CD3/CD28 antibodies (FACS): 32.5%
  reduction of intracellular IL-10 in PBMCs stimulated with anti-CD3/CD28 antibodies (FACS): 48.5%
  reduction of intracellular TNF-alpha in PBMCs stimulated with anti-CD3/CD28 antibodies (FACS): 47.3%

## soluble recombinant Fc fusion protein of hPD-L1 (from UniProt Q9NZQ7 19-229)
  increase of intracellular IL-2 in PBMCs stimulated with anti-CD3/CD28 antibodies (FACS): 14.2%
  reduction of intracellular IFN-gamma in PBMCs stimulated with anti-CD3/CD28 antibodies (FACS): 15.1%
